# B1: Hairpin Ribozyme (parent)
# chain: GUCCUCUUUCACGUGCGCGUGAAAGAGAGAAGUGAACCAGAGAAACACACGUUGUGGUAUAUUACCUGGUA
# Variants of: B1
# Assay: self-cleavage, relative activity (ratio to wild type); higher = more cleavage; co-transcriptional
row,Variant,self-cleavage
1,U20C C46A,0.237
2,U20C C46U,0.103
3,A22C A44C,0.0803
4,G21C G68U,0.289
5,G21A A71U,0.611
6,G21A G68C,0.15
7,U20A A41G,0.681
8,G21A A49U,0.234
9,G21A U67G,0.241
10,G21U C66U,0.427
11,G21C C37G,0.425
12,A22C A43U,0.15
13,U20A G54A,0.546
14,U20A U33C,0.186
15,U20C C66A,0.309
16,U20C C66U,0.486
17,G21C G32U,0.0815
18,G21C G32A,0.141
19,U20G A59G,0.167
20,U20C A44C,0.155
21,G21U G27C,0.172
22,U20G G32A,0.124
23,U20A A49U,0.272
24,U20A A49C,0.131

row,Variant,self-cleavage
1,G21U A31C,0.0844
2,G21U A31G,0.325
3,G21U G69U,0.211
4,G21U G69A,0.374
5,G21U G69C,0.293
6,G19U U60A,0.804
7,G19U U60G,0.444
8,G21U U60A,0.851
9,G21U U60G,0.48
10,G21C U60G,0.55
11,U20C G32U,0.157
12,A22C G68C,0.247
13,G21A U52C,0.817
14,G21C G29U,0.316
15,G19U G69U,0.227
16,U20A A35C,0.967
17,U20A A35G,0.815
18,G21A C50A,0.306
19,A22C A49C,0.264
20,U20C U58C,0.893
21,U20C U58A,0.673
22,G21U A23C,0.595
23,U20A U52G,0.685
24,G21A A59G,0.125

row,Variant,self-cleavage
1,G21C A59G,0.206
2,G21C A59U,0.204
3,U20A A22C,0.373
4,U20A A22G,0.587
5,U20A A22U,0.849
6,U20A C37G,0.375
7,G21U U67C,0.23
8,U20C G56A,0.255
9,G19U U67C,0.214
10,U20C G25A,0.288
11,G21U C38U,0.357
12,G21U C38G,0.167
13,G21U A47U,0.123
14,G19U G54A,0.468
15,G19U G54U,0.497
16,U20C G29U,0.235
17,G21A G57A,0.192
18,G21U A24U,0.78
19,G21A U70A,0.742
20,U20A A36U,0.497
21,G21U A41U,1.24
22,G21U A41C,1.12
23,G21A G40U,0.151
24,G21U A44U,0.165

row,Variant,self-cleavage
1,G21A A36G,0.959
2,U20C A23C,0.648
3,U20C A23U,0.667
4,U20C U55A,0.407
5,G21C U58G,0.647
6,G19U U62G,0.24
7,G19U U62A,0.268
8,U20C U62C,0.462
9,G21U G56C,0.116
10,G21A G27U,0.227
11,G21U G51U,0.992
12,U20A G25A,0.453
13,U20A G25U,0.529
14,G21U U63A,0.105
15,U20G G54C,0.321
16,G21A A26C,0.0544
17,G21U A49C,0.219
18,U20A A47G,0.185
19,U20A A47U,0.274
20,U20C C48G,0.104
21,U20C C48U,0.175
22,G21U A61U,0.202
23,G21C A23U,0.5
24,A22C A36C,0.559

row,Variant,self-cleavage
1,A22C A36U,0.581
2,G21U C37U,0.373
3,G21U A36C,0.463
4,G21U A36U,0.661
5,G21U A36G,1.07
6,G21U U33C,0.192
7,U20G A39G,0.27
8,G21C G57U,0.189
9,A22C G27U,0.411
10,G21A C66G,0.156
11,U20C A26C,0.329
12,U20A A43G,0.348
13,U20A A43U,0.0666
14,G19U U20A,0.825
15,G21A A28U,0.719
16,A22C A24U,0.485
17,U20G A64U,0.141
18,U20G A64C,0.184
19,G21A U63C,0.155
20,G21A U63G,0.118
21,U20G A26C,0.483
22,U20G A26G,0.788
23,G19U G57C,0.105
24,U20A U67C,0.237

row,Variant,self-cleavage
1,U20G A41U,1.3
2,U20G A41C,1.13
3,A22C A30G,0.179
4,A22C A30U,0.0473
5,G21C A47C,0.254
6,G21C A47U,0.181
7,G21C C38U,0.452
8,U20G G56C,0.312
9,G21C C66G,0.159
10,U20G A36U,0.749
11,U20G A36C,0.771
12,U20C A30U,0.0821
13,A22C G34C,1.22
14,A22C G34U,1.49
15,A22C G34A,1.04
16,U20G G27U,0.154
17,U20G A71G,0.971
18,U20G A71U,0.605
19,G19U U52G,0.741
20,G21U A26C,0.123
21,A22C A41C,1.22
22,U20C A24G,0.758
23,G21C G25A,0.165
24,G21C G25U,0.399

row,Variant,self-cleavage
1,G21U U62G,0.156
2,U20C A47U,0.161
3,U20A G34A,0.993
4,U20A G34C,1.26
5,U20G U55C,0.268
6,U20G U55A,0.147
7,U20G U55G,0.293
8,G21A A64C,0.207
9,G21U G34U,1.24
10,U20C C37A,0.426
11,U20C C37G,0.342
12,U20G A24C,0.789
13,G21A G32C,0.146
14,U20A G29A,0.101
15,U20A C66A,0.231
16,G21U C50A,0.194
17,U20G C50U,0.42
18,U20G C50A,0.246
19,G21U A35U,0.626
20,G21U A35C,0.841
21,G21U A22C,0.763
22,G21U A22G,0.736
23,G21A G29U,0.186
24,A22C G54C,0.317

row,Variant,self-cleavage
1,U20C A35U,0.82
2,U20C A35C,0.785
3,U20C G42A,0.19
4,G21A A22G,0.728
5,U20A A30C,0.253
6,G21C A35C,0.748
7,G21C A22C,0.61
8,G21C A22U,0.715
9,G21U U53C,0.85
10,G21U U53G,0.907
11,U20G U53C,0.633
12,U20G U53A,0.927
13,U20C G51U,1.07
14,U20C G51C,0.54
15,A22C A71U,0.685
16,A22C A71G,0.945
17,A22C A45U,0.108
18,A22C A45C,0.128
19,G21C G69A,0.419
20,U20G U70C,0.783
21,U20G U70A,1.07
22,G21A A43G,0.127
23,A22C C46U,0.141
24,A22C C46G,0.187

row,Variant,self-cleavage
1,G21C A64G,0.564
2,G21A G54A,0.491
3,G21A G54C,0.293
4,G21C A43U,0.0826
5,G21C G27A,0.186
6,U20A U60C,0.995
7,U20G C48G,0.179
8,U20A G57A,0.204
9,U20A G57C,0.215
10,A22C G69U,0.152
11,A22C G69A,0.448
12,A22C A47U,0.208
13,A22C A47C,0.24
14,A22C A47G,0.187
15,G21U U58A,0.493
16,A22C G57A,0.119
17,G21U A64C,0.149
18,G21U A30C,0.232
19,A22C G25U,0.17
20,A22C G25C,0.182
21,U20C G57C,0.198
22,U20G G68C,0.162
23,G19U G34U,1.3
24,G19U G34C,1.36

row,Variant,self-cleavage
1,U20C A49U,0.148
2,U20G G57U,0.212
3,G21C U63G,0.191
4,G21C U63A,0.0855
5,U20A A26C,0.394
6,U20A A26U,0.611
7,U20A A71U,0.735
8,U20A A71C,1.15
9,U20A G51C,0.846
10,A22C U58A,0.68
11,U20C U67G,0.336
12,U20A G32A,0.18
13,U20C C65G,0.472
14,A22C G42C,0.291
15,U20G A22G,0.959
16,U20G A22U,0.868
17,A22C G40U,0.19
18,U20A U53A,0.758
19,G21A A47C,0.402
20,G21A A47G,0.2
21,U20G G25U,0.64
22,G21C A26U,0.57
23,G21U G32U,0.1
24,U20G A45U,0.117

row,Variant,self-cleavage
1,A22C A26U,0.429
2,U20C U33C,0.13
3,G21A U33C,0.116
4,G21A U33G,0.104
5,G21C A44C,0.0985
6,G21C A44G,0.194
7,G21A U60A,0.804
8,U20G G34U,1.5
9,A22C G32A,0.178
10,A22C G32U,0.107
11,A22C G32C,0.106
12,A22C C66G,0.0576
13,A22C A64U,0.251
14,A22C A64C,0.101
15,U20G U58A,0.501
16,U20C A45U,0.076
17,G21A C38U,0.466
18,U20A A24U,0.732
19,G21C A24G,0.555
20,G21C A24C,0.556
21,U20C A61C,0.138
22,U20C A61G,0.0608
23,U20C G34C,1.45
24,U20C G27C,0.169

row,Variant,self-cleavage
1,U20C G27A,0.345
2,A22C A28C,0.386
3,A22C A28U,0.504
4,U20A G21A,0.79
5,U20A G21U,0.642
6,U20C A39C,0.562
7,U20A A64G,0.562
8,U20G C65G,0.177
9,U20G C65A,0.895
10,G21U C46A,0.0942
11,G21U C46U,0.128
12,U20C A22G,0.877
13,U20C A59C,0.185
14,G21C A71C,1.12
15,A22C A39C,0.539
16,A22C A39G,0.362
17,G21A C48A,0.19
18,G21A C48U,0.0963
19,G21C C50G,0.278
20,U20G A31G,0.581
21,G21C A30U,0.139
22,G21C A30C,0.242
23,G21U C65A,0.996
24,G21C U52C,0.971

row,Variant,self-cleavage
1,G21C U52A,0.909
2,U20C C38U,0.415
3,U20C C38G,0.154
4,U20G C46U,0.0821
5,G21C U53A,0.671
6,G21A G34U,1.08
7,U20A A31C,0.21
8,G21C A36G,0.779
9,U20A G40C,0.0677
10,U20C U70G,0.909
11,U20G A23G,0.98
12,U20G A23U,0.712
13,G21A A35C,0.788
14,G21U G57A,0.148
15,G21U G57U,0.224
16,G19U U70G,0.79
17,G19U U63A,0.166
18,U20G U60C,0.815
19,U20G U60A,0.775
20,U20G A35C,0.976
21,U20A G56A,0.108
22,U20A G56C,0.145
23,U20A G68U,0.297
24,U20A G68A,0.332

row,Variant,self-cleavage
1,U20G G42A,0.266
2,G21C U70G,0.658
3,U20A C50U,0.5
4,U20A C50A,0.423
5,G19U G40A,0.325
6,U20C A43C,0.0285
7,U20G A30C,0.194
8,G21C C46G,0.162
9,G21U G40A,0.309
10,G21U G40U,0.147
11,G21U A39U,0.293
12,A22C A61G,0.123
13,U20A U62A,0.239
14,U20A A45G,0.183
15,U20A A45C,0.109
16,G21U U52A,0.806
17,G21U U52C,0.764
18,G19U G68C,0.196
19,U20C A41G,0.886
20,U20C A41U,1.36
21,U20A A28U,0.497
22,G21A A41U,1.07

# — the RNAGym collection of RNA variant scans (doi:10.7554/elife.80360)
